Measurements from patent US20250082681A1 (NANJING LEGEND BIOTECH, published 2025).

T1: recombinant human CLL1 extracellular domain, His-tagged (CLL1-His protein) (human, UniProt Q5QGZ9 65-265)
T1 construct: ECD made by transient expression in HEK293 (293-F) cells and purified by IMAC; also called recombinant human CLL1 protein; ECD of CLL1; not shown: His tag (protein called CLL1-His, purified by IMAC)
T1 sequence: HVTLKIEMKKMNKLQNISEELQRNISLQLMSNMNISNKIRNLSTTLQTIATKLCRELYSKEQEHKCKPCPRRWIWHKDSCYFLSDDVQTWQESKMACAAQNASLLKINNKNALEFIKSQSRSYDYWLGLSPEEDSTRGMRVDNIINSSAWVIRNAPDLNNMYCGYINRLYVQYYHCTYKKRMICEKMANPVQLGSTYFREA


Experiments:
[1] = target: T1, recombinant human CLL1 extracellular …; experiment: SPR (BIACORE T200), IgG1 on recombinant human CLL1; column KD, unit inferred
Procedure: (§1) The unique clones were grown in 2YT medium and induced by IPTG for IgG1 expression in the supernatant. The supernatants of unique binders were analyzed for their ability to bind to a CLL1-expressing HEK293/huCLL1 cell line and cancer cell line AMLL193 using a FACS assay. Affinities of selected binders in supernatants to recombinant human and cynomolgus monkey CLL1 proteins were determined by surface plasmon resonance (SPR) on a BIACORE® T200 instrument. The dissociation phase was used to calculate the kd values for each IgG1.

[2] = target: T1, recombinant human CLL1 extracellular …; experiment: SPR (BIACORE T200), supernatants on recombinant human CLL1
Procedure: as §1

Binder | Kd [1] | binding result [2]
AS138658 (antibody, V domains shown, Called 'IgG1', from a camel phage library, expressed in IPTG-induced supernatant with a C-terminal His-tag; also called anti-CLL1 IgG1) VH: QVQLVQSGGSLRLSCAASGFTFSSYDMSWVRQAPGKGLEWVSTINSGGETTYYRDSVKGRFTISRDNAKNTLYLQLNSLKTEDTAMYYCAKGGGWEYYGMDYWGKGTLVTISS VL: SYELTQPSAVSVSLGQTARITCQGGNLGSSYAYWYQQKPGQAPVLVIYADDSRPSGIPERFSGSSSGGTATLTISGAQAEDEADYYCQSYDSSSYDIVFGGGTHLTVL | 21 nM | 
AS141330 (antibody, V domains shown, Called 'IgG1', from a camel phage library, expressed in IPTG-induced supernatant with a C-terminal His-tag; also called anti-CLL1 IgG1) VH: QVKLEQPGGSLRLSCAASGFTFSDYDMTWVRQAPGKGLEWISTITGGGESTYYRDSVKGRATISRDNAKNTLYLQLNSLKTEDTAMYYCARGGGWEYYGMNYWGKGTLVTISS VL: SSELTQPSAVSVSLGETARITCQGGKVGSNYASWYQQKPGQAPVLVIYGDDSRPSGIPERFSGSSSGGTATLTISGAQAEDEADYYCQSYDSSGYNAVFGGGTHLTVL |  | binds
AS141286 (antibody, V domains shown, Called 'IgG1', from a camel phage library, expressed in IPTG-induced supernatant with a C-terminal His-tag; also called anti-CLL1 IgG1) VH: QVQLVQSGGGLVQPGGSLRLSCAASRFPDGSYYMSWVRQGPGKGLEWVSSIYTGGDSTYYADSVKGRFTISKDNAKNALYLQMNSLKPEDTAVYYCAADPGGRYGPHEYNYWGQGTQVTVSS VL: SSELTQPSAVSVSLGETARITCQGGNIGSNYANWYQQKPGQAPVLVIYGDDSRPSGIPERFSGSSSGGTATLTISGAQAEDEADYYCQSADSSGYNAVFGGGTHLTVL | 1.2 nM | 
AS138993 (antibody, V domains shown, Called 'IgG1', from a camel phage library, expressed in IPTG-induced supernatant with a C-terminal His-tag; also called anti-CLL1 IgG1) VH: QVQLQESGGDLVQPGGSLRLSCAASGFTFSSYDMTWVRQAPGKGLEWVSTINSGGGVTYYTDSVKGRFTISRDNAKNTLYLQMNSLKPEDTAMYYCAADLSWYHALDAWGQGTLVTVSS VL: SSELTQPAAVSVSLGETARITCQGGNFGSYYASWYQQKPGQAPVLVIHANDNRPSGIPERFSGSSSGGTVTLTISGAQAEDEADYYCQSYDSSANAVVFGGGTHLTVL | 13 nM | 
AS138628 (antibody, V domains shown, Called 'IgG1', from a camel phage library, expressed in IPTG-induced supernatant with a C-terminal His-tag; also called anti-CLL1 IgG1) VH: QVQLVQSGGGLVQPGGSLRLSCASSGFTFSSYTMSWVRQAPGKGLEWVSGFNSYGSTYYADSVKGRFTISRDNAKNTLYLQLNSLKTEDTAMYYCARGLVDFDYWGQGTQVTVSS VL: QSVLTQPSSVSGTPGQTVTISCTGTSNDVGGYNYVSWYQQLPGTAPKLLIYQVNKRASGIPDRFSGSKSGNTASMTISGLQSADEADYYCASYRSTGNAVFGGGTHLTVL | 43 nM | 
AS141567 (antibody, V domains shown, Called 'IgG1', from a camel phage library, expressed in IPTG-induced supernatant with a C-terminal His-tag; also called anti-CLL1 IgG1) VH: QVQLVQSGGGLVQPGGSLRLSCAASGFTFSSYAMSWVRQAPGKGLEWVSAINSGDSSTYYVDSVKGRFTISRDNAKNTLYLQLNSLKTEDTAMYYCAKDRIPGPYSDGGGFLGIVFGYWGQGTQVTISS VL: SSELTQPSAVSVSLGQTARITCQGGNFGKYYAHWYQQKPGQAPVLVIYEDSERPSGIPERFSGSSSGDTATLTISGAQAEDEGDYYCHSAESSAAVFGGGTHLTVL | 2.3 nM | 
AS141819 (antibody, V domains shown, Called 'IgG1', from a camel phage library, expressed in IPTG-induced supernatant with a C-terminal His-tag; also called anti-CLL1 IgG1) VH: EVQLVQSGGGLVQPGGSLRLSCATSGFTFSNNWMHWVRQAPGKGLEWVSSINTGDGSTSSADSVKGRFTISRDNTKNILYLQMNSLKSEDTALYYCAKELDYELGKGPHEYNYWGQGTQVTVSS VL: SYELTQPSAVSVSLGETARITCQGGNIGSNYANWYQQKPDQAPVLVIYGDDSRPSGIPERFSGSSSGGTATLTISGAQAEDETDYYCQSADSSGYKAVFGGGTHLTVL | 11 nM | 
AS141297 (antibody, V domains shown, Called 'IgG1', from a camel phage library, expressed in IPTG-induced supernatant with a C-terminal His-tag; also called anti-CLL1 IgG1) VH: QVQLVQSGGGLVQPGGSLRLSCAASGFTFSSYGMIWVRQAPGKGLEWVSAANSGGGTTYYADSVKGRFTISRDNAKNTLYLQLNSLKTEDTAMYYCVKDLYIDGGTWSGLGLYLEVWGQGTLVTVSS VL: SYELTQPSAVSVSLGETARITCQGGDFGTYYASWYQQKPGQAPVLVIYEDSERPSGIPERFSGSSSGGTATLTISGAQAEDEADYYCQSADSSVNVVFGGGTHLTVL | 0.54 nM | 
AS138943 (antibody, V domains shown, Called 'IgG1', from a camel phage library, expressed in IPTG-induced supernatant with a C-terminal His-tag; also called anti-CLL1 IgG1) VH: AVQLVESGGGLVQPGGSLRLSCTASGFNFGLYAMSWVRQAPGKGLEWVSGINGGGGLTYYPDSMKGRFTISRDVAKNTLYLELNSLKIEDTAMYYCAKDPDMWTAFPNALDAWGQGTLVTVSS VL: SYELTQPSAVSVSLGETARITCQGGNIGINYANWYQQKPGQAPVLVIYGDDRRPSGIPERFSGSISGGTATLTISGAQAEDEADYYCQSADSSPYVVFGGGTHLTVL | 39 nM | 
AS141522 (antibody, V domains shown, Called 'IgG1', from a camel phage library, expressed in IPTG-induced supernatant with a C-terminal His-tag; also called anti-CLL1 IgG1) VH: QVQLVQSGGGLVQPGGSLRLSCAASGFTFGDYIMIWVRQAPGKGLEWVSAINSGGDSTYYADSVKGRFTISRDNAKNTLYLQLNSLKTQDTAIYYCAKDREAYYGSFYGGSGFDYWGQGTQVTISS VL: SSELTQPSAVSVSLGETARITCQGGNVGSSYASWYQQKPGQAPVLVIYEDSERPSGIPERFSGSSSGGTATLTISRAQAEDEADYYCQSADRSGYNAVFGGGTHLTVL | 0.37 nM | 
AS141641 (antibody, V domains shown, Called 'IgG1', from a camel phage library, expressed in IPTG-induced supernatant with a C-terminal His-tag; also called anti-CLL1 IgG1) VH: AVQLVESGGGLVQPGGSLRLSCAASGFTFSGYPMSWVRQAPGKALEWVSTINNGGGSTYYADSVKGRFTISRDNAKNTLYLQLNSLKTEDTAMYYCAKRHIPSSYCSDGYCYAAGEDYGMDYWGKGTLVTISS VL: SSELTQPSAVSVSLGETARITCQGGNVGSSYASWYQQKPGQAPVLVIYEDSERPSGIPERFSGSSSGGTATLTISGAQAEDEADYYCQSADSSGYNAVFGGGTHLTVL | 0.28 nM | 
AS141553 (antibody, V domains shown, Called 'IgG1', from a camel phage library, expressed in IPTG-induced supernatant with a C-terminal His-tag; also called anti-CLL1 IgG1) VH: QVQLVESGGGLVQPGGSLRLSCAASGFTFSSVDMTWVRQAPGKGLEWVSTINTGSGSTYYADSVKGRFTISRDNAKNTLYLQMNSLKTEDTAVYYCATDLAGGGAWFTAPFHYWGQGTQVTISS VL: SYELTQPSAVSVSLGETARITCQGGNVGYYYASWYQQKPGQAPVLVIYEDSERPSGIPERFSGSSSGGTATLTISGAQAEDEADYYCQSADSSGYNAAVFGGGTHLTVL | 3.5 nM | 
AS141701 (antibody, V domains shown, Called 'IgG1', from a camel phage library, expressed in IPTG-induced supernatant with a C-terminal His-tag; also called anti-CLL1 IgG1) VH: QVQLVQSGGGLVQPGGSLRLSCAASGFTFSVYAMSWVRQAPGKGLEWVSAIKAANSDGDNTYYVDSVKGRFTISRDNAKNTLYLQLNSLKTEDTAIYYCAKAMYECSSGSWCPLGDALDAWGQGTLVTVSS VL: SSELTQPSAVSVSLGETARITCQGGNVRSSYVSWYQQKPGQAPVLVIYEDSERPSGIPERFSGSSSGGTATLTISGAQAEDEADYYCQSGDNSAYSAAVFGGGTHLTVL | 2.8 nM | 
